# Laboratory results as given in US20200247855A1 (published 2020).
# Substitutions are numbered along the chain they refer to.
# B1: P1100_IXORI (other)
# chain: GSKGSSASQSSDNSVVAKFCDTNCTINEGGKWTECKGGCFCVHVGNETVGRCMKLDGDYDYPSPKPEE
# B2: P1086_IXORI (other)
# chain: GSKGQRASQVSETSITAEFCDTSCTQGTDKTWSGCSGDCFCVHVGNDTEGRCMRWDGDYPSAEEEE
# B3: P1124_IXORI (other)
# chain: DSKGTSDSQDSTKSIKVDFCETNCTKTDGGWTGCTGDCICVSVGDSIEGRCMDFG
# B4: P942_IXORI (other)
# chain: NQLSGPQSSANSNEAVFCDTNCTQGTDEAWSGCRGDCFCVYVGNSTEGRCMMLSGDFDYSTPGAED
# B5: P675_IXORI (other)
# chain: GSNQLSGPQSSANSNDAVFCDTNCTQGTDGAWSGCRGDCFCVHVGNSTEGRCIELIGDFDYSTPGAED
# B6: P1080_IXORI (other)
# chain: SAGSKGSSAPQSSGDSVVAEFCDTNCTMKKDGKWTECNGDCFCVHVGNETVGRCMRLDGDYDYTSSKTTRRNKKTRNGLCRLDRNRTTVDYPERNTREP
# B7: P1090_IXORI (other)
# chain: GSKELSGPESSENSIEAAFCDTNCTEGTDGVWSGCSAGCFCVHVGNSTVGRCMTFNGVDGG
# B8: P1074_IXORI (other)
# chain: GSKESSAHQSSDDSIKAEFCDAKCTMKTDGKWTQCHGGCFCVHVGNETEGRCMRLDGDYDYPSTQPEE
# B9: P1104_IXORI (other)
# chain: ESKEASASQGPGKSFKVEFCETNCTENNGVWSGCTGDCICVSVGDSKEGRCMDLGDKVIDTPVAQG
# B10: P1078_IXORI (other)
# chain: GSKGSSAQQSSHDSIKAEFCETNCTMKTGGKWTQCHGGCFCVHVGNETVGRCIKLDGDYDYPSSKHEE
# B11: P458_IXORI (other)
# chain: GSKQPGAAGSSSDSVEAVFCPTNCTKGTNGAWSGCSDDCICVHVGENTEGSCMKFSGDYDYPTPEA
# B12: P1128_IXORI (other)
# chain: KDDEHFSVDYCGMNCTQQEDGSWTACSGRNEECRCYHESGKKNGLCLSTTYIDFSQYGNPSDSDIAAASPRP
# B13: P1127_IXORI (other)
# chain: AGKDDEHFSVDYCGMNCTQQEDGSWTACSGRNGECRCYHESGKRSGLCLSTTYIDFSEYGNLSDSDIAAASPRLSMKESH
# B14: P1077_IXORI (other)
# chain: GSKQLIGPQSSTNSIKAEFCDTNCTAGTNGIWNGCSGDCFCTHVGNSTEGRCMKITGFDEYPTSEAEE
# B15: EVA3_RHISA (protein)
# chain: LVSTIESRTSGDGADNFDVVSCNKNCTSGQNECPEGCFCGLLGQNKKGHCYKIIGNLSGEPPVVRR
# B16: P1162_IXORI (other)
# chain: LNDEELFTVDYCGTNCTQQPNGSWTTCPGNCSCYHEDGKTDGFCLSTEYTDFTQFPNLTSEEMDAATPRPE
# B17: P1174_IXORI (other)
# chain: LNNENELFSVEYCGANCTQQDNGSWTKCKGNCTCYHEDGKRYGLCLSTEYTDFTQFPKPTSEEIADASPRPKETNSH
# B18: P1132_IXORI (other)
# chain: LSDEDELFSVEYCGTNCTKQDTGSWTTCSGNCTCYHEDGKKVGLCLSTEYTDFTKFPKPTSEEIANARPLPKREKTLN
# B19: P1168_IXORI (other)
# chain: GQDTDGKEKSDEYELFTVEYCGTNCTQLENGSWTACTGKNGTCRCFHENDKKVGLCLSTEYTDFSEYPDPNSEEIKAASPLP
# B20: P1229_IXORI (other)
# chain: DDEFFTVDYCGMNCTLQQDGSWTPCTQKNAECKCYHESGSSVGLCLSTAYTDFNQFGDPNNSDLDAATPRHPDASSR
# B21: P1166_IXORI (other)
# chain: GPETKEDKKSDVYELFTVEYCGTNCTLLTNGRWTACTGKKGTCRCYHESGEKVGLCLSTEYTDFSEYPNPKSSEIDAAAPLPRETH
# B22: P1170_IXORI (other)
# chain: LGDEDQLFSVEYCGTNCTQQDDGKWTPCSGKNGKCKCYHEDGKRYGLCLYTEYTDFSQYPNPEGSEIENTRPRP
# B23: P1172_IXORI (other)
# chain: B16 chain with N2H, D3E, E4D, L6I, Q18K, P20S
# B24: P1134_IXORI (other)
# chain: NEEVFTVEYCGMNCTQKSDGTWTECSGKNKDCRCYHESDAREGLCLSTEYTDFSQFETPSNSDLEAATPRPRKTLYPVRNPHGPKTRGLGYDKRILRDRVKFLI
# B25: P1095_IXORI (other)
# chain: HSPVAGSEVQKLTSDPNDDIDVSYCGMNCTVVNGKSDECSENCKCLHEGDDPKGICVAITYFGDWGDPNDDPKINEATPQTQIFEKKRK
# B26: P1096_IXORI (other)
# chain: HTTVTGSVEGKPNNPNEDIEVSYCRMNCTVENGVSSACSGDCVCVHRDNEPNGICVEITYFGDFGDPSQDPSIDEAAPRESVSKRRSNGES
# Biological target: CXCL13
# Assay: BLI
row,Binder,Kd
1,B1,714 nM
2,B2,22.7 nM
3,B3,256 nM
4,B4,39.5 nM
5,B5,582 nM
6,B6,1110 nM
7,B7,12.5 nM
8,B8,95.8 nM
9,B9,220 nM
10,B10,255 nM
11,B11,13.8 nM

# Biological target: CXCL3_HUMAN (human, UniProt P19876 35-107)
# Assay: BLI
# Chain of CXCL3_HUMAN (P19876 35-107): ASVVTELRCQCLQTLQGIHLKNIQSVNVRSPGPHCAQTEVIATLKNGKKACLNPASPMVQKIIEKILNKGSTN
row,Binder,Kd
1,B12,38.5 nM
2,B1,55.9 nM
3,B2,15.2 nM
4,B3,8.84 nM
5,B4,5.04 nM
6,B5,35.7 nM
7,B6,124 nM
8,B7,7.67 nM
9,B13,68.8 nM
10,B8,24 nM
11,B14,16 nM
12,B15,7.37 nM
13,B16,60.1 nM
14,B9,43.7 nM
15,B10,43.8 nM
16,B11,7.83 nM

# Biological target: CXCL1_HUMAN (human, UniProt P09341 35-107)
# Assay: BLI
# Chain of CXCL1_HUMAN (P09341 35-107): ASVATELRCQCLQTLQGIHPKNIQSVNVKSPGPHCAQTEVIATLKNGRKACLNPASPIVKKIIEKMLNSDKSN
row,Binder,Kd
1,B17,15.4 nM
2,B18,11.9 nM
3,B12,0.722 nM
4,B1,49.9 nM
5,B2,11.4 nM
6,B3,7.61 nM
7,B4,3.09 nM
8,B5,9.99 nM
9,B6,55.1 nM
10,B7,3.55 nM
11,B19,5.91 nM
12,B13,1.42 nM
13,B8,27.8 nM
14,B14,7.53 nM
15,B15,5.73 nM
16,B16,2.66 nM
17,B9,14.4 nM
18,B20,13.4 nM
19,B21,12.9 nM
20,B10,6.35 nM
21,B22,59.6 nM
22,B23,5.59 nM
23,B11,16.6 nM
24,B24,27.3 nM

# Biological target: CXCL8_HUMAN (human, UniProt P10145 28-99)
# Assay: BLI
# Chain of CXCL8_HUMAN (P10145 28-99): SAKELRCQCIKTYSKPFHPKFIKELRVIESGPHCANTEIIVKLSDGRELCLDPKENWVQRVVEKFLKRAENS
row,Binder,Kd
1,B17,81.7 nM
2,B18,32.8 nM
3,B12,2.3 nM
4,B19,20.7 nM
5,B25,110 nM
6,B13,13.3 nM
7,B15,2.57 nM
8,B16,12.2 nM
9,B20,30.7 nM
10,B21,129 nM
11,B22,12.3 nM
12,B23,26.7 nM
13,B26,44.7 nM

# Biological target: CXCL2
# Assay: BLI
row,Binder,Kd
1,B18,18.6 nM
2,B12,5.57 nM
3,B1,185 nM
4,B2,34 nM
5,B3,13.8 nM
6,B4,6.48 nM
7,B5,24.8 nM
8,B6,392 nM
9,B7,3.03 nM
10,B19,29.9 nM
11,B13,27.8 nM
12,B14,264 nM
13,B16,14.4 nM
14,B9,82.3 nM
15,B21,149 nM
16,B10,68.3 nM
17,B23,26 nM
18,B11,4.55 nM

# Biological target: CXCL5
# Assay: BLI
row,Binder,Kd
1,B18,152 nM
2,B12,62.2 nM
3,B1,50.8 nM
4,B2,26 nM
5,B3,26.4 nM
6,B4,21.1 nM
7,B5,34.2 nM
8,B6,56.6 nM
9,B7,43 nM
10,B13,26.6 nM
11,B8,42.7 nM
12,B14,55.7 nM
13,B16,32.1 nM
14,B9,245 nM
15,B10,39.2 nM
16,B23,59.3 nM
17,B11,19.1 nM

# Biological target: CXCL4
# Assay: BLI
row,Binder,Kd
1,B4,148 nM
2,B5,422 nM
3,B6,2310 nM
4,B8,157 nM

# Biological target: CXCL6
# Assay: BLI
row,Binder,Kd
1,B1,15.2 nM
2,B2,10.7 nM
3,B3,231 nM
4,B4,7.28 nM
5,B5,7.68 nM
6,B6,11 nM
7,B7,2.82 nM
8,B14,29.3 nM
9,B9,34.3 nM
10,B10,9.24 nM
11,B11,4.97 nM

# Biological target: T1, CXCL11_HUMAN (human, UniProt O14625 22-94)
# T1 chain: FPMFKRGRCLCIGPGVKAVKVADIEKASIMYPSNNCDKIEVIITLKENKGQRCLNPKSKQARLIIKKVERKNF
# Assay: BLI
row,Binder,Kd
1,B1,102 nM
2,B4,12.4 nM
3,B5,7.73 nM
4,B6,73.3 nM
5,B7,3.85 nM
6,B8,12 nM
7,B14,538 nM
8,B10,16.7 nM

# Biological target: CXCL10_HUMAN (human, UniProt P02778 22-98)
# Assay: BLI
# Chain of CXCL10_HUMAN (P02778 22-98): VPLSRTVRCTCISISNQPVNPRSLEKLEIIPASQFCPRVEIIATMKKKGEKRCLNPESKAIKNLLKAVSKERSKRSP
row,Binder,Kd
1,B1,380 nM
2,B2,18.7 nM
3,B4,133 nM
4,B5,3120 nM
5,B6,1260 nM
6,B7,23.9 nM
7,B8,40.7 nM
